Source: publication PMC5461201

Key:
[1] = molecular target: FLAG-ADAR1p110-T/S-to-A (phosphorylation inhibitory mutant) (human); assay: pull-down
[2] = molecular target: FLAG-ADAR1p110-T/S-to-D (phosphomimetic mutant) (human); assay: pull-down

**Q.** With “Xpo5-RanGTP complex (His-Xpo5 with His-RanQ69L and GTP, preassembled with VARdm RNA) (from UniProt Q9HAV4 1-1204; P62826 1-216)” as the substance, how does the binding efficiency (judged from unbound His-Xpo5 in flow-through) [1] read?
**A.** < 10%

**Q.** And the binding efficiency (judged from unbound His-Xpo5 in flow-through) [2]?
**A.** 70%

**Q.** And the fold amount bound against ADAR1p110-T/S-to-A [2]?
**A.** 10 to 20 fold
